In this assay the target is T1, NLS-λN-GFP1-10.
T1 construct: also called LambdaN-GFP1-10; second protein of pCMV::GFP11-NLS-MCP-IRES-NLS-λN-GFP1-10; not shown: my translati
Nature of the assay: split-GFP complementation, fluorescence in transfected HEK293T cells.

B1: GFP11-NLS-MCP (other, not shown: small tags and cut ends)
chain: MRDHMVLHESVNAAGITASNFTQFVLVDNGGTGDVTVAPSNFANGVAEWISSNSRSQAYKVTCSVRQSSAQKRKYTIKVEVPKVATQTVGGVELPVAAWRSYLNMELTIPIFATNSDCELIVKAMQGLLKDGNPIPSAIAANSGLY
notes: linker and NLS are known only from the DNA; also called first protein of pCMV::GFP11-NLS-MCP-IRES-NLS-λN-GFP1-10; Split-GFP-RNAadaptor (one of the pair)
With B1, the binding result is reported as “binds”.

The record behind these values is patent US20260176627A1 (University of Washington, published 2026).
